Measured values taken from PMC3148250, “Structural Basis for Sequence Specific DNA Binding and Protein Dimerization of HOXA13”.

Assays:
A13DBD WT [1] = molecular target: T1, A13DBD WT (mouse (murine), UniProt Q62424 320-386); experiment: fluorescence anisotropy; 10 mM MgCl2; FA: 20 mM Tris pH 7.5, 80 mM KCl, 10 mM MgCl2, 0.2 mM EDTA, 1 mM DTT, 15 C, 1 nM DNA; NMR complex: 20 mM NaPO4 pH 6.0, 5 mM MgCl2, 10% D2O, 310 K; ITC buffer not given in the material; details: protein: recombinant; tags: His-tag removed by thrombin; label: 5' 6-FAM via hexyl linker; hairpin (self-annealing)
A13DBD V373G [2] = molecular target: T2, A13DBD V373G (mouse (murine), UniProt Q62424 320-386, V373G); experiment: as above; details: protein: recombinant; tags: His-tag removed by thrombin; label: 5' 6-FAM via hexyl linker; hairpin (self-annealing)
A13DBD WT [3] = molecular target: T1, A13DBD WT; experiment: fluorescence anisotropy; 10 mM MgCl2; text fold changes suggest T6*C and T6*U swapped; FA: 20 mM Tris pH 7.5, 80 mM KCl, 10 mM MgCl2, 0.2 mM EDTA, 1 mM DTT, 15 C, 1 nM DNA; NMR complex: 20 mM NaPO4 pH 6.0, 5 mM MgCl2, 10% D2O, 310 K; ITC buffer not given in the material; details: protein: recombinant; tags: His-tag removed by thrombin; label: 5' 6-FAM via hexyl linker; hairpin (self-annealing)
A13DBD WT [4] = molecular target: T1, A13DBD WT; experiment: ITC; FA: 20 mM Tris pH 7.5, 80 mM KCl, 10 mM MgCl2, 0.2 mM EDTA, 1 mM DTT, 15 C, 1 nM DNA; NMR complex: 20 mM NaPO4 pH 6.0, 5 mM MgCl2, 10% D2O, 310 K; ITC buffer not given in the material; details: protein: recombinant, tags: His-tag removed by thrombin
A13DBD I366A = A13DBD I366A (mouse (murine), UniProt Q62424 320-386, I366A); experiment: as above; details: protein: recombinant; tags: His-tag removed by thrombin; blunt
A13DBD V373A = A13DBD V373A (mouse (murine), UniProt Q62424 320-386, V373A); experiment: as above; details: protein: recombinant; tags: His-tag removed by thrombin; blunt
A13DBD F344A = A13DBD F344A (mouse (murine), UniProt Q62424 320-386, F344A); experiment: ITC; does not affect DNA binding; FA: 20 mM Tris pH 7.5, 80 mM KCl, 10 mM MgCl2, 0.2 mM EDTA, 1 mM DTT, 15 C, 1 nM DNA; NMR complex: 20 mM NaPO4 pH 6.0, 5 mM MgCl2, 10% D2O, 310 K; ITC buffer not given in the material; details: protein: recombinant; tags: His-tag removed by thrombin; blunt
A13DBD V373G [5] = molecular target: T2, A13DBD V373G; experiment: ITC; text says 3-4-fold lower affinity; FA: 20 mM Tris pH 7.5, 80 mM KCl, 10 mM MgCl2, 0.2 mM EDTA, 1 mM DTT, 15 C, 1 nM DNA; NMR complex: 20 mM NaPO4 pH 6.0, 5 mM MgCl2, 10% D2O, 310 K; ITC buffer not given in the material; details: protein: recombinant; tags: His-tag removed by thrombin; blunt
A13DBD N370A = A13DBD N370A (mouse (murine), UniProt Q62424 320-386, N370A); experiment: ITC; text says ~1000-fold lower affinity; FA: 20 mM Tris pH 7.5, 80 mM KCl, 10 mM MgCl2, 0.2 mM EDTA, 1 mM DTT, 15 C, 1 nM DNA; NMR complex: 20 mM NaPO4 pH 6.0, 5 mM MgCl2, 10% D2O, 310 K; ITC buffer not given in the material; details: protein: recombinant; tags: His-tag removed by thrombin; blunt
A13DBD V373G [6] = molecular target: T2, A13DBD V373G; experiment: ITC; FA: 20 mM Tris pH 7.5, 80 mM KCl, 10 mM MgCl2, 0.2 mM EDTA, 1 mM DTT, 15 C, 1 nM DNA; NMR complex: 20 mM NaPO4 pH 6.0, 5 mM MgCl2, 10% D2O, 310 K; ITC buffer not given in the material; details: protein: recombinant; tags: His-tag removed by thrombin; C5-A5* mismatch with strand 2 as printed
A13DBD V373G [7] = molecular target: T2, A13DBD V373G; experiment: competition; 50 nM already competes with consensus; 4 uM protein; FA: 20 mM Tris pH 7.5, 80 mM KCl, 10 mM MgCl2, 0.2 mM EDTA, 1 mM DTT, 15 C, 1 nM DNA; NMR complex: 20 mM NaPO4 pH 6.0, 5 mM MgCl2, 10% D2O, 310 K; ITC buffer not given in the material; details: protein: recombinant; tags: His-tag removed by thrombin; hairpin (self-annealing)

T1 sequence (Q62424 320-386): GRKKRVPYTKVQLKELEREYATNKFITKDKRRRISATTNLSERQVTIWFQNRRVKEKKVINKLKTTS
T2 sequence (Q62424 320-386 V373G): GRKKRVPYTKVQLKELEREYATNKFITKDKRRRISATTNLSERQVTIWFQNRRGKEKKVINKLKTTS
Sequence of A13DBD I366A (Q62424 320-386 I366A): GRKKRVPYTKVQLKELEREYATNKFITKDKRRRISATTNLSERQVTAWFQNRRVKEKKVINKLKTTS
Sequence of A13DBD F344A (Q62424 320-386 F344A): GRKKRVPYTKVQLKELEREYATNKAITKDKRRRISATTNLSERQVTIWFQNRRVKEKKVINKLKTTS
Sequence of A13DBD V373A (Q62424 320-386 V373A): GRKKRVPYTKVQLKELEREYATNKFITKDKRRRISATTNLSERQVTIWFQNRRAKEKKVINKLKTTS
Sequence of A13DBD N370A (Q62424 320-386 N370A): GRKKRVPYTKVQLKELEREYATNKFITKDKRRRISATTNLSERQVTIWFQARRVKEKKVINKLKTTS

B1: FA consensus (wt) (structured_DNA)
DNA: CAAATAAAATCCCCCATTTTATTTG
- Kd (A13DBD WT [1]): 2.19 ± 0.06 nM
- Kd (A13DBD V373G [2]): 56.6 ± 2.25 nM

B2: FA T5U (structured_DNA)
DNA: CAAAUAAATCCCCCATTTTATTGTG
modifications: deoxyuridine at position 5
- Kd (A13DBD WT [1]): 4.01 ± 0.28 nM

B3: FA T6*C (structured_DNA)
DNA: CAAATGAAATCCCCCATTTCATTG
- Kd (A13DBD V373G [2]): 79.3 ± 6.93 nM
- Kd (A13DBD WT [3]): 5.95 ± 0.64 nM

B4: 11-mer T5U (dsDNA)
DNA 1: CAAAUAAAATC
DNA 2: GATTTTATTTG
modifications: deoxyuridine at T5 (DNA strand)
- Kd (A13DBD WT [4]; blunt): 14.5 nM

B5: 11-mer duplex WT (dsDNA)
DNA 1: CAAATAAAATC
DNA 2: GATTTTATTTG
- Kd (A13DBD I366A): 43.7 nM
- Kd (A13DBD WT [4]; blunt): 7.5 nM
- Kd (A13DBD V373A): 18.7 nM
- binding result (A13DBD F344A): binds
- Kd (A13DBD V373G [5]): 137 nM
- Kd (A13DBD N370A): 862 nM

B6: FA T5C (structured_DNA)
DNA: CAAACAAAATCCCCCATTTTGTTTG
- Kd (A13DBD WT [1]): 49.2 ± 4.97 nM
- Kd (A13DBD V373G [2]): 616 ± 56.1 nM

B7: 11-mer T5C (dsDNA)
DNA 1: CAAACAAAATC
DNA 2: GATTTTATTTG
- Kd (A13DBD WT [4]; C5-A5* mismatch with strand 2 as printed): 286 nM
- Kd (A13DBD V373G [6]): 617 nM

B8: Scrambled (structured_DNA)
DNA: TGACTGACTGACTGCCCCCCAGTCAG
- binding result (A13DBD V373G [7]): binds
